Source: the RNAGym collection of RNA variant scans (doi:10.1093/molbev/msab373)

B1: Azoarcus group I ribozyme (parent)
chain: GUGCCUUGCGCCGGGAAACCACGCAAGGGAUGGUGUCAAAUUCGGCGAAACCUAAGCGCCCGCCCGGGCGUAUGGCAACGCCGAGCCAAGCUUCGGCGCCUGCGCCGAUGAAGGUGUAGAGACUAGACGGCACCCACCUAAGGCAAACGCUAUGGUGAAGGCAUAGUCCAGGGAGUGGCGAAAGUCACACAAACCGG

Variants of: B1
Experiment: reverse-splicing fitness (ratio to wild type); higher = more active; in vitro selection; Mg2+ level not given
Outline: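 An in vitro group I ribozyme library with randomized positions was T7-transcribed and gel-purified. In triplicate, 10 pmol RNA in EPPS pH 7.5 was reacted with 50 pmoles of a 30-nt RNA substrate for 1 h at 37 °C across several added MgCl2 levels (1–48 mM), then stopped with EDTA. Products were reverse transcribed from a substrate-complementary primer, PCR-amplified and sequenced (HiSeq 4000). Fitness is a variant's read proportion after selection over that before, normalised to wild type.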

Variant	reverse-splicing fitness
C82U A111U A120U A145G C150A	0.00852
C82U A111U A120U A145C C150A C169A U176G	0.00264
C82U A111U A120U A145C C150A C169A U176C	0.00217
C82U A111U A120U A145C C150A C169A U176A	0.00203
C82U A111U A120U A145C C150A C169G U176A	0.00269
C82U A111U A120U A145C C150A C169G U176G	0.00189
C82U A111U A120U A145C C150A C169G U176C	0.00255
C82U A111U A120G A145U C150U C169U U176C	0.0139
C82U A111U A120G A145U C150U C169U U176A	0.0203
C82U A111U A120G A145U C150U C169U U176G	0.00432
C82U A111U A120G C150A C169G U176C	0.0213
C82U A111U A120G C150A C169G U176A	0.0221
C82U A111U A120G C150A C169G U176G	0.00529
C82U A111U A120G C150A C169U U176G	0.00726
C82U A111U A120G C150A C169U U176A	0.0209
C82U A111U A120G C150A C169U U176C	0.0171
C82U A111U A120G C169A	0.00883
C82U A111U A120G C169G	0.01
C82U A111U A120G C169U	0.0086
C82U A111U A120G A145U C169U	0.00798
C82U A111U A120G A145U C169A	0.00696

Variant	reverse-splicing fitness
C82U A111U A120G A145U C169G	0.00838
C82U A111U A120U A145C C169A U176C	0.00199
C82U A111U A120U A145C C169A U176G	0.00173
C82U A111U A120U A145C C169A U176A	0.00226
C82U A111U A120U A145C C150U C169A U176A	0.00217
C82U A111U A120U A145C C150U C169A U176C	0.00253
C82U A111U A120U A145C C150U C169A U176G	0.00178
C82U A111U A120G C150G	0.00696
C82U A111U A120G C150U	0.0114
C82U A111U A120G C150A	0.00947
C82U A111U A120U A145C C150A U176G	0.00245
C82U A111U A120U A145C C150A U176A	0.00354
C82U A111U A120U A145C C150A U176C	0.00387
C82U A111U A120U A145C C150G C169G U176A	0.00245
C82U A111U A120U A145C C150G C169G U176G	0.00175
C82U A111U A120U A145C C150G C169G U176C	0.00216
C82U A111U A120G C150G C169U U176C	0.0119
C82U A111U A120G C150G C169U U176G	0.00556
C82U A111U A120G C150G C169U U176A	0.0122
C82U A111U A120U A145G C150A C169G	0.00478
C82U A111U A120U A145G C150A C169U	0.00374

Variant	reverse-splicing fitness
C82U A111U A120U A145G C150A C169A	0.00571
C82U A111U A120U A145C C150G C169A U176G	0.00281
C82U A111U A120U A145C C150G C169A U176A	0.00264
C82U A111U A120U A145C C150G C169A U176C	0.00247
C82U A111U A120G C150U C169A U176G	0.005
C82U A111U A120G C150U C169A U176C	0.0129
C82U A111U A120G C150U C169A U176A	0.0156
C82U A111U A120U A145C C169G U176G	0.0016
C82U A111U A120U A145C C169G U176C	0.00221
C82U A111U A120U A145C C169G U176A	0.00238
C82U A111U A120U A145C C150G U176G	0.00213
C82U A111U A120U A145C C150G U176A	0.00287
C82U A111U A120U A145C C150G U176C	0.00408
C82U A111U A120U A145C C150G C169A	0.00266
C82U A111U A120U A145C C150G C169U	0.00284
C82U A111U A120U A145C C150G C169G	0.00307
C82U A111U A120G A145U C150U C169U	0.00788
C82U A111U A120G A145U C150U C169G	0.00885
C82U A111U A120U A145C C150A C169U U176C	0.00269
C82U A111U A120U A145C C150A C169U U176A	0.0025
C82U A111U A120U A145C C150A C169U U176G	0.00213

Variant	reverse-splicing fitness
C82U A111U A120G A145U C169U U176A	0.0203
C82U A111U A120G A145U C169U U176C	0.0132
C82U A111U A120G A145U C169U U176G	0.0035
C82U A111U A120G C150G C169A U176C	0.00855
C82U A111U A120G C150G C169A U176G	0.00664
C82U A111U A120G C150G C169A U176A	0.00906
C82U A111U A120U	0.0242
C82U A111U A120G C150A C169A	0.0103
C82U A111U A120G C150A C169U	0.00823
C82U A111U A120G C150A C169G	0.0098
C82U A111U A120G C169A U176A	0.0178
C82U A111U A120G C169A U176C	0.0221
C82U A111U A120G C169A U176G	0.00417
C82U A111U A120G C150A U176A	0.0114
C82U A111U A120G C150A U176G	0.00633
C82U A111U A120G C150A U176C	0.0164
C82U A111U A120U A145C C169U	0.00314
C82U A111U A120U A145C C169A	0.00225
C82U A111U A120U A145C C169G	0.00316
C82U A111U A120U A145C C150U C169G U176G	0.00171
